Marks after values point to notes of the source that are not given here.
What was measured:
[1] = Stability (RCP by radio-HPLC) of purified scale-up 64Cu-DOTATATE reactions; format: physicochemical; details: for RCP: Sep-Pak purified material
Experimental: (§1) HPLC was performed using an Agilent 1200 series system equipped with a variable wavelength UV-Vis detector followed in-line with a sodium iodide detector (Bioscan B-FC-200P). A Phenomenex Luna C18 column (150 mm×.4.6 mm, 5 μm) was used. The mobile phase was made of Solvent A and Solvent B. Solvent A was a 0.1% trifluoroacetic acid (TFA) in HRW, and solvent B was 0.1% TFA acid in acetonitrile (ACN). The gradient was (i) 15-40% Solvent B in A for 10 min, 40% Solvent B in A from 10 to 15 min, 15% Solvent B in A from 15-16 min, and 15% Solvent B in Solvent A from 16-19 min. The flow rate was 1.2 mL/min, and UV detection was monitored at 220 nm.
Radiolabeling reactions followed the general procedure described herein. A solution of ^64Cu in 0.05 M HCl was mixed with a solution of DOTATATE in sodium acetate/gentisic acid buffer. The reaction mixture was heated to 30° C. for 5 min and then purified via a C-18 solid phase extraction cartridge. The purified ^64Cu-DOTATATE was collected in 2 mL of 50% EtOH and subsequently diluted with an ascorbic acid solution. The final product was assayed for activity and the radiochemical purity (RCP) was evaluated via radio-HPLC analysis. Characterization was performed against non-radioactive DOTATATE (tR=6.3 min) and Cu-DOTATATE (tR=7.3 min) standards.
Representative reactions for 100 mCi-7000 mCi batch sizes and results are outlined in Table 9. […] The remainder of the activity eluted (tR=6.2-7.2 min) are attributed to degradation products due to radiolysis.

[2] = Stability of 64Cu-DOTATATE in final dose matrix (NaOAsc, EtOH, GA) by HPLC; format: physicochemical
Experimental: as §1
The effect of ethanol (EtOH) and gentisic acid (GA) content in the final dose matrix on chemical stability of ^64Cu-dotatate was assessed. In these experiments, 500 mCi reactions were performed using the general procedure outlined in Example 2 and the ^64Cu-DOTATATE product was eluted from the Sep-Pak with 2 mL of 50% EtOH (aq) into 5 mL of 50 mg/mL NaOAsc buffer to serve as the purified ^64Cu-DOTATATE stock solution. From the ^64Cu-DOTATATE stock, 1 mL aliquots were transferred to vials containing the following solutions:
In those samples, the decrease in ^64Cu-DOTATATE correlated with an increase in free ^64Cu and two unknown radioimpurities at tR=6.6 min and 7.1 min.

[3] = target: somatostatin receptors, subtype 2 receptors (SSTR2) (Homo sapiens, UniProt P30874); details: cited from earlier work
[4] = reaction 120.6 mCi 64Cu at TOS, 200 μg DOTATATE
[5] = reaction 481 mCi 64Cu at TOS, 1000 μg DOTATATE, average of two samples
[6] = reaction 1190 mCi 64Cu at TOS, 2000 μg DOTATATE, average of two samples
[7] = reaction 2402 mCi 64Cu at TOS, 4000 μg DOTATATE, average of two samples
[8] = reaction 7297 mCi 64Cu at TOS, 4378 μg DOTATATE

Sequence of somatostatin receptors, subtype 2 receptors (SSTR2) (P30874 whole entry): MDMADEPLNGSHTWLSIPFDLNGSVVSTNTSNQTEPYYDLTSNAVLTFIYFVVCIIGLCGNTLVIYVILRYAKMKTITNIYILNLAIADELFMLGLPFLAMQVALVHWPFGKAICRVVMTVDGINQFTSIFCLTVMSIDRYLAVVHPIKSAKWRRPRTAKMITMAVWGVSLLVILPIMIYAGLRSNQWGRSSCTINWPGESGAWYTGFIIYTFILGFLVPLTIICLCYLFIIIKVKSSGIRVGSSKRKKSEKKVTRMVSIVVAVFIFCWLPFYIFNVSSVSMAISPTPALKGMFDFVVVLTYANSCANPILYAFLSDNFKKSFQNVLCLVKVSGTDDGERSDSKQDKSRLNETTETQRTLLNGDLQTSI

C[C@@H](O)[C@H](NC(=O)[C@@H]1CSSC[C@H](NC(=O)[C@@H](Cc2ccccc2)NC(=O)CN2CCN3CCN(CC(=O)O)CCN(CC2)CC(=O)[O][64Cu][O]C(=O)C3)C(=O)N[C@@H](Cc2ccc(O)cc2)C(=O)N[C@H](Cc2c[nH]c3ccccc23)C(=O)N[C@@H](CCCCN)C(=O)N[C@@H]([C@@H](C)O)C(=O)N1)C(=O)O [^64Cu-DOTATATE, copper (Cu64)-N-[(4,7,10-Tricarboxymethyl-1,4,7,10-tetraazacyclododec-1-yl)acetyl]-Dphenylalanyl-L-cysteinyl-L-tyrosyl-D-tryptophanyl-L-lysyl-L-threoninyl-L-cysteinyl-L-threonine-cyclic (2-7) disulfide]
period over which stable (HPLC) ([1]; purified reaction solutions): at least 47 h
RCP Day 1 (+24 hr) [1, 4]: 97.7%^
RCP Day 2 (+47 hr) [1, 4]: 95.0%^
RCP [1, 4]: 98.9%^
RCP [1, 5]: 99.4%^c
RCP Day 1 (+24 hr) [1, 5]: 99.7%^c
RCP Day 2 (+47 hr) [1, 5]: 99.4%^c
RCP [1, 6]: 99.6%^c
RCP Day 1 (+24 hr) [1, 6]: 99.4%^c
RCP Day 2 (+47 hr) [1, 6]: 99.7%^c
RCP [1, 7]: 99.2%^c
RCP Day 1 (+24 hr) [1, 7]: 99.4%^c
RCP Day 2 (+47 hr) [1, 7]: 99.3%^c
RCP Day 2 (+47 hr) [1, 8]: 95%
RCP [1, 8]: 95%
purity, chemically stable for two days ([2]; sodium ascorbate 45-122 mg/mL, ethanol 1.6%-5.2%, activity concentration 3.6-16 mCi/mL at time of preparation): greater than 95%
purity, remained stable ([2]; sodium ascorbate up to 98 mg/mL, ethanol up to 9.7%, activity concentration approximately 18 mCi/mL at time of preparation): greater than 90%
affinity for somatostatin receptor subtypes [3]: highest affinity for subtype 2 receptors (SSTR2)

From US12102696B2, “Radiolabeling and formulation for scale up of 64Cu-DOTATATE” (Curium US LLC, priority 2020, dated 2024)
